Results taken from patent US20030181404A1 (BETH ISRAEL DEACONESS MEDICAL CENTER, published 2003).

Assays:
ErbB-4 = target: T1, ErbB-4 (human (human breast cancer cell line), UniProt Q15303 26-1308, limits assumed); assay: co-immunoprecipitation from HRG-stimulated Flag-CHK MCF-7 lysates
T1 construct: also called p180 ErbB-4

[1] = target: EGF receptor (EGF-R, ErbB-1) (human (human breast cancer cell lines), UniProt P00533 25-1210); assay: co-immunoprecipitation with anti-CHK antibodies from EGF-stimulated Flag-CHK MCF-7 lysates, immunoblot
ErbB-3 = target: T2, ErbB-3 (human (human breast cancer cell line), UniProt P21860 20-1342, tyrosine-phosphorylated upon HRG stimulation (sites not given)); assay: co-immunoprecipitation with anti-CHK antibody from HRG-stimulated Flag-CHK MCF-7 lysates, anti-ErbB-3 immunoblot
T2 construct: also called p180 ErbB-3

Measured: binding result

T2 sequence (P21860 20-1342 limits assumed): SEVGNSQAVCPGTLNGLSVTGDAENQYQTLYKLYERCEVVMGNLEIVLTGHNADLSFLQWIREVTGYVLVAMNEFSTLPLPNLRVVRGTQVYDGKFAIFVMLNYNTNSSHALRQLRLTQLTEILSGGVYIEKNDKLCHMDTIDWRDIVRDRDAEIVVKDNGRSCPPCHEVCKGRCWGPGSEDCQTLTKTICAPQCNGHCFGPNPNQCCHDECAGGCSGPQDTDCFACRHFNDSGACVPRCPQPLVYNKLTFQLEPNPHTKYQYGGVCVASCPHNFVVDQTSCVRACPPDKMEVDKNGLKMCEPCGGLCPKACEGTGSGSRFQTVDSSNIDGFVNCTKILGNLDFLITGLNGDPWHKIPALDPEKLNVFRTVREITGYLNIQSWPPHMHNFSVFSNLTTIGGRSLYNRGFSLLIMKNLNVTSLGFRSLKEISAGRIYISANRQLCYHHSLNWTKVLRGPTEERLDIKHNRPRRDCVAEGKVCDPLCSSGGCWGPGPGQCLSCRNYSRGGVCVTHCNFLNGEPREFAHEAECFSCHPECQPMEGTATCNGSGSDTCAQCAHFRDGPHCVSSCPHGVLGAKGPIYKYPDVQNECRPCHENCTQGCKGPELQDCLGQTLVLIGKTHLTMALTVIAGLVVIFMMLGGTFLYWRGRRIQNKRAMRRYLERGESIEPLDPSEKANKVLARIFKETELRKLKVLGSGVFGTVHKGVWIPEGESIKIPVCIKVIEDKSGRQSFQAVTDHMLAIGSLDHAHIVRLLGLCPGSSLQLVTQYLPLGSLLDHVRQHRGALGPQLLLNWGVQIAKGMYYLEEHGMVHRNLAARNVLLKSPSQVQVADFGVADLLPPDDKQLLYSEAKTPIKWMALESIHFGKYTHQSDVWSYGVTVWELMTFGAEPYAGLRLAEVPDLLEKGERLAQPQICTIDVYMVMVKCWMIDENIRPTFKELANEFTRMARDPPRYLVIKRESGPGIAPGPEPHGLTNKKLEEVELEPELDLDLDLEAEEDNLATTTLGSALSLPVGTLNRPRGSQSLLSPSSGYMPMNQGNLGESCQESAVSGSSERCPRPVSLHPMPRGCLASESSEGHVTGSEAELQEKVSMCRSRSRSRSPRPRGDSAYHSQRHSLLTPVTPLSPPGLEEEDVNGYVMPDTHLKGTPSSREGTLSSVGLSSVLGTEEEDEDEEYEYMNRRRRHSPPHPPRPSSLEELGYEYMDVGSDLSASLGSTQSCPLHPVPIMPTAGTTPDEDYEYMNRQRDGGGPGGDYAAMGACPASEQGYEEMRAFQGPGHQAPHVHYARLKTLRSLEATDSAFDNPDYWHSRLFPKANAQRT
T1 sequence (Q15303 26-1308 limits assumed): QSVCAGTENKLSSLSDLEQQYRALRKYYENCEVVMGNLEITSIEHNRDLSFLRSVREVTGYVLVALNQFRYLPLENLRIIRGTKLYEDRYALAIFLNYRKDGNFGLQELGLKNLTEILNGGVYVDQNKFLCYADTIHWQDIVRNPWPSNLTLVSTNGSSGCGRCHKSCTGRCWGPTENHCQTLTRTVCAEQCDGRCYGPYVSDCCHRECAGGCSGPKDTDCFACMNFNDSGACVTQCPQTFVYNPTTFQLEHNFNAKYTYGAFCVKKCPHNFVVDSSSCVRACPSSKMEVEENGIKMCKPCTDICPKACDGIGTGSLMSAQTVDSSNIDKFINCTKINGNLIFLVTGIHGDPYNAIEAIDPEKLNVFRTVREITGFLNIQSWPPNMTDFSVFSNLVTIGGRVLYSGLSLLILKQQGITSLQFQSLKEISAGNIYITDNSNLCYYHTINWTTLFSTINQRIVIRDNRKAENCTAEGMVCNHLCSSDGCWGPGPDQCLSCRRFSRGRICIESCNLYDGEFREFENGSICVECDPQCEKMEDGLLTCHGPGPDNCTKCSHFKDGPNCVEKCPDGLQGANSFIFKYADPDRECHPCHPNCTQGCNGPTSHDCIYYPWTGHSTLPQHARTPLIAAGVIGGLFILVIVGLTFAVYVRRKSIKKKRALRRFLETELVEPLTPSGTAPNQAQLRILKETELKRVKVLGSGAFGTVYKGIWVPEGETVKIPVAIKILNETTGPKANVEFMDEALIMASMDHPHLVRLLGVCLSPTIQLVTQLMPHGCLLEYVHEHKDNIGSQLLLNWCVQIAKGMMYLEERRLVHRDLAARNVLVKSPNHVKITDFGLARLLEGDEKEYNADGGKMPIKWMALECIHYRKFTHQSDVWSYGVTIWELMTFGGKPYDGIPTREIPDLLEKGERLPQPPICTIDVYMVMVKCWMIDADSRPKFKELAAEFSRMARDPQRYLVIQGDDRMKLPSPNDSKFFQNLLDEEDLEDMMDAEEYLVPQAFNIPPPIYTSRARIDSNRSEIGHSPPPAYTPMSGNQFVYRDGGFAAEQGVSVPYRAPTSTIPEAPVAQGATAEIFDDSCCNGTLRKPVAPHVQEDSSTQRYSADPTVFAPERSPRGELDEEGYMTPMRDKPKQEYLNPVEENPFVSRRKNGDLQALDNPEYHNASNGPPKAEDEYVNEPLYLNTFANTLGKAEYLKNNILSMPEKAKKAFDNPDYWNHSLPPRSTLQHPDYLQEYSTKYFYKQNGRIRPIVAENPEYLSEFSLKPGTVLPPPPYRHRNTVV

B1: Flag-CHK (Flag epitope-tagged CHK expressed in MCF-7 cells from pCDNA3 neo) (enzyme)
chain: DYKDDDDKMAGRGSLVSWRAFHGCDSAEELPRVSPRFLRAWHPPPVSARMPTRRWAPGTQCITKCEHTRPKPGELAFRKGDVVTILEACENKSWYRVKHHTSGQEGLLAAGALRDGEALSADPKLSLMPWFHGKISGQEAVQQLQPPEDGLFLVRESARHPGDYVLCVSFGRDVIHYRVLHRDGHLTIDEAVFFCNLMDMVEHYSKDKGAICTKLVRPKRKHGTKSAEEELARAGWLLNLQHLTLGAQIGEGEFGAVLQGEYLGQKVAVKNIKCDVTAQAFLDETAVMTKMQHENLVRLLGVILHQGLYIVMEHVSKGNLVNFLRTRGRALVNTAQLLQFSLHVAEGMEYLESKKLVHRDLAARNILVSEDLVAKVSDFGLAKAERKGLDSSRLPVKWTAPEALKHGFTSKSDVWSFGVLLWEVFSYGRAPYPKMSLKEVSEAVEKGYRMEPPEGCPGPVHVLMSSCWEAEPPAGHPSANWPRSWPGSYAVQVPQPPSQGRTPTVHLAPKPGALTPPGGPWPQRTERVESAAWGH
notes: An initiator Met stands before the Flag tag; also called intact CHK
no binding: all assays above
